Laboratory results published in the DeepSol protein solubility set.

Experiment: soluble on expression in E. coli; label from the status in PepcDB or PDB records
With “MSLRIKNNEVAVYAIGGLHEIGKNMYCVQYQDEIIIMDCGIKFPEDDLLGINYVISDYSYLIKNRKKIKALVVSHGHEDHIGGIPFLLEKIPEIPVYATPFALSLIRGKLEEHGILKTTELHEEHEDTVLKFKKLSVSFFRTTHSIPDTLGIAVHTPLGAVVFTGDFKFDLTPVMDQPAPDFQKMAKLGNEGVLALLSDSTNAEVTQFTKSERFVAQSLHNIITGIHGRIIFATFASNLYRVSTAIQAAIDTGRKVAIFGRSMENGVDNGIDLGYLDIPKDLIVDAEEINKLPPDKVMILCTGSQGEPLAALSRIANGTHRQITLQPGDTVIFSSNPIPGNTLSVNHLINKLMEGGANVIHGRVNNVHTSGHGGQEELKMMVRLTKPKYMIPVHGEYRMQVIHTQLAQQAGVPAENTFVLSNGEVVCFGPNGARLAGRIPAGDVYVDTSGTADVGNVVVHDRQILSEEGLVVAVATVDYKHKRVLAGPDILSRGFVYMRESTELISQAQKHVYHVLRNEMSKSDKPKESEIKKAITENLSDFLYSKTERRPMILPIIIEKEGHHHHHH” the “soluble on expression in E. coli” value was “soluble”.
In the case of “MSLRISMATFFPQSVTALDSPLYGRSFADDKMRELFSAQSFISRCVETEVALARAQARLGIIPEDAAAGITAAARTFAPEMERLRDDTEIVGYPILPLVEQLSAHAGEAGKYLHWGATTQDIMDTATVLQIRDGLALISRRIESVRKALAALARNHRDTPMAGRTHLQHALPVTFGYKAAVWLSAFDRHAARLEEISPRVLVVEFSGASGTLASLGTRGLDVQRELARELNLGVPSITWHSARDAVAETVQFLALVSGSLGKLAMDISIMMTTELGEVAEPFVRHRGASSTMPQKQNPVSCELILAGARIVRNHATSMLDAMIHDFERATGPWHLEWSAVPEGFAVASGILYQAEFMLGGLQVFPDRMRENLDHSRGLIVAEAVMMALAPHTGRKEAHDIVYLGCRRAVEDKTGLFEVLRTMPEVAKPLGEEALRDLTDPRNYLGSAGAMVDNVLGGREGHHHHHH”, the “soluble on expression in E. coli” value is reported as “soluble”.
In the case of “MSLRKIIPINNNWYFKADYEEGYEKVDDLRSFENVNLPHTNIELPYNYFDEKMYQIKSCYKYPLHISEKYRDKVIYIHFEGVMAYAQVYLNGLYIGEHKGGYTPFDIRIDEVYDWKKELNMLTVVVDSTERSDIPPKGGQIDYLTYGGIYREVSLGIYDDVFIKNIKVETHGIYDNEKSLNLIVHLENLNHQSGNVKFKVKINDKNGKEVFYKEFNTYLDAVKDVYSFNIENLKDIKLWDVDNPNLYEIKVGMKINNFSDEYDNKFGFREAVFKPDGFYLNGRKLKLRGLNRHQSYPYVGYAMPRRVQEKDAEILKNELHLNIVRTSHYPQSKHFLNKCDELGLLVFEEIPGWQYIGNSEWKKVAEQNLREMITRDWNHPSIILWGVRINESQDDDAFYKNMNKIAHEIDPTRQTGGVRYITNSSFLEDVYTFNDFIHDGINKPLRKQQEVTGLEHNVPYLVTEYNGHMYPTKRFDNEERQMEHCLRHLRIQNASYLDDSISGAIGWCAFDYNTHKDFGSGDRICYHGVMDMFRLPKFASYVYKSQVSPDIEPILEPVTFWARGERSIGGVIPLIIFTNCDYIELQYGNKTKIDNIYPNRDAYKGIPYPPIIIDYDIVKPEMIGAWGMVWEDLTLKGFYKGNKVIERKFSREPIPTYLYVVPDDTILSATQKDATRIVVKILDQYGNLLPFINEVIKIEIEGPAKLQGPNEVALIGGEGHHHHHH”, the “soluble on expression in E. coli” value is reported as “soluble”.
For “MSLRKNIFFIVFIILCAVSCTEKKSNFINTVHLKGQLLDMGSQNVRMRFDGAASMLGDSRDILLKTDAAGYFDTTFVLKEPTYYTISRNTLYLTPGDDMTIKVTQTNTEAEFSGIGAEANNYMKFRLFPKGGSYLEAGGNLRGDFVSTKALVDSLAAIRMHTLDTLSNVSDAFKKLETARIKADIINSYICYASYSRMFAEVKNEEEMRAKWNEFNVSLTQDVTPLYKEIVNEDMLNVAVVRDVLSYQEDSTLASLWFKDISIPARTTELYACAKIVDNLRNEASEQTVNEAKAFLQTVKNADFATEIEGKIVQASKLLPGQPAIDFEMLDVEGNVKHLADFKGKVIYIDLWATWCGPCIQESPAFEALGKKYVGKDIVFLPVSTDTTTKPWLRYLDGHKKELTQYHSNDVALKESWAIMYIPRFILIDKDFNIVNAYAPRPSSEEIGTLIDSVLNKEGHHHHHH”, the “soluble on expression in E. coli” value was “soluble”.
